What all share (assay type): biochemical
The target in assay [1] is T1, polymorphonuclear leucocyte elastase from human sputum (Homo sapiens, UniProt P08246).
T1 construct: Polymorphonuclear leukocyte elastase from human sputum (EPC Co; Funakoshi Yakuhin); purchased EPC Co. (via Funakoshi Yakuhin); host or cells: human sputum
T1 sequence (P08246 30-267): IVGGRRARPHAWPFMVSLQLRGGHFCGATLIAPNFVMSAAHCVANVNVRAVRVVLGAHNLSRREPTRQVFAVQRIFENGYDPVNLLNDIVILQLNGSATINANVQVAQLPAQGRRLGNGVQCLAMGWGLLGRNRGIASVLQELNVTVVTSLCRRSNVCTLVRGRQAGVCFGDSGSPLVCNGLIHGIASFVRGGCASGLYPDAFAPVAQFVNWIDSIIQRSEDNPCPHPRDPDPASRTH
The experiment in a line: Assay for elastase inhibitor activity (Example 24). The conditions noted are these: enzyme 2 × 10^-8 M, substrate 3.0 × 10^-4 M. The method, then:
(§1) The following assay method was used.
(§2) Buffer: 0.1M (2-hydroxyethyl)piperazine-N'-2-ethansulfonic acid (HEPES), 0.5M NaCl, pH 7.5.
(§3) Enzyme concentration: the following enzyme was dissolved in the above-mentioned buffer to a concentration 9 times that shown in Table 12.
(§4) A. Polymorphonuclear leucocyte elastase from human sputum (EPC Co., Funakoshi Yakuhin)
Substrate solution: for the enzymes A, B, C, D and E, the following substrate a, b, c, d or e, respectively, was dissolved in a solution of DMSO+the above-mentioned buffer (1:9) (note, final concentration of DMSO was 10% in the buffer) to a concentration of 9 times that shown in Table 12.
(§5) a. MeO-Suc-Ala-Ala-Pro-Val-pNA (Bachem) […]
(§6) To wells of an ELISA 96-well microtiter plate, were added 120 μl of the buffer and the 20 μl of a sample solution of (Arg^59 -Ala^107) SLPI obtained in Example 23, followed by 20 μl of the enzyme solution. The mixture was reacted at 37° C. for 10 minutes. Next, 20 μl of the substrate was added, and developed at 37° C. The developed color was measured by absorption at 405 nm.
(§7) As a control the same procedure was carried out using SLPI.

Another assay has as its target T2, Bovine spleen trypsin (Bos taurus, UniProt P00760).
T2 construct: purchased Sigma
T2 sequence (P00760 24-246): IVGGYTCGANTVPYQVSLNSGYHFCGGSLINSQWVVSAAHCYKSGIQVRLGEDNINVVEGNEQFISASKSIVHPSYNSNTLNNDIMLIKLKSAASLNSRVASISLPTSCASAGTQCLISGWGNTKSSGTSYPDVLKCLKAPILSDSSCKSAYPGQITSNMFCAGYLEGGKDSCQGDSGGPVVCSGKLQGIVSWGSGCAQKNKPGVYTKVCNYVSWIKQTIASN
Kind of assay: Assay for trypsin inhibitor activity (Example 24). The conditions noted are these: enzyme 2 × 10^-7 M, substrate 1.0 × 10^-3 M. The method, then: as §1, §2, §3
B. Bovine spleen trypsin (Sigma)
Substrate solution: for the enzymes A, B, C, D and E, the following substrate a, b, c, d or e, respectively, was dissolved in a solution of DMSO+the above-mentioned buffer (1:9) (note, final concentration of DMSO was 10% in the buffer) to a concentration of 9 times that shown in Table 12. […]
as §6, §7

Assay [2] concerns the target T3, Human plasma thrombin (Homo sapiens, UniProt P00734).
T3 construct: (5) Human plasma thrombin (Kabi, Daiichi Kagaku Yakuhin); purchased Kabi (via Daiichi Kagaku Yakuhin); host or cells: human plasma
Kind of assay: Assay for thrombin inhibitory activity (Example 25). The conditions noted are these: final concentration up to ×10^-5 M; enzyme 3 × 10^-9 M. The method, then:
F. Human plasma thrombin (Sigma)
(§8) Buffer: Buffer solution for each enzyme is as follow. Thrombin and FXa: 50 mM Tris-HCl, 7.5 mM EDTA-2Na, 175 mM NaCl (pH 8.4) […]
(§9) Substrate solution: for the enzymes F, G, H and I, the following substrate f, g, h or i, respectively, was dissolved to a final concentration shown in Table 14.
f. H.D-Phe-Pip-Arg-pNA (Kabi Vitrum)
(§10) To wells of an ELISA 96-well microtiter plate, were added a solution of (Arg^59 -Ala^107) SLPI obtained in Example 23 and then the enzyme solution, and the mixture was incubated at 37° C. for 10 minutes. Next, the substrate solution was added to develop the color, whose absorption was then measured at 405 nm. As a control, SLPI was used.

The target of assay [3] is T4, Human plasma plasmin (Homo sapiens, UniProt P00747).
T4 construct: (6) Human plasma plasmin (Kabi, Daiichi Kagaku Yakuhin); purchased Kabi (via Daiichi Kagaku Yakuhin); host or cells: human plasma
Kind of assay: Assay for plasmin inhibitory activity (Example 25). The conditions noted are these: final concentration up to ×10^-5 M; enzyme 1.0 × 10^-7 M. As to the method: G. Human plasma plasmin (sigma)
Plasmin: 50 mM Tris-HCl, 100 mM NaCl (pH 7.4) […]
as §9
g. H.D-Val-Leu-Lys-pNA (Kabi Vitrum)
as §10

For assay [4], the target named is T5, Human plasma kallikrein (Homo sapiens, UniProt P03952).
T5 construct: (7) Human plasma kallikrein (Kabi, Daiichi Kagaku Yakuhin); purchased Kabi (via Daiichi Kagaku Yakuhin); host or cells: human plasma
Kind of assay: Assay for kallikrein inhibitory activity (Example 25). Particulars: final concentration up to ×10^-5 M; enzyme 1.0 × 10^-7 M. The method, then: H. Human plasma kallikrein (Protogene, Funakoshi Yakuhin)
Kallikrein: 50 mM Tris-HCl, 361 mM NaCl, 0.01 mg/ml polybrene (pH 7.8) […]
as §9
h. H.D-Pro-Phe-Arg-pNA (Kabi Vitram)
as §10

The test system of the next assay is Porcine FXa. Kind of assay: Assay for Fxa inhibitory activity (Example 25). Particulars: final concentration up to ×10^-5 M; enzyme 1.0 × 10^-8 M. As to the method: I. Porcine FXa (Daichi Seiyaku)
as §8, §9
i. Ratio 1:1 mixture of the following compounds: [drawing 5]
as §10

Assay [5] has as its system polymorphonuclear leucocyte elastase from human sputum. Kind of assay: Inhibitory constant (Ki) assay, elastase (Example 26). Particulars: from Table 16. The method, then:
Method for assay is as follow.
Buffer: 0.1M N-(2-hydroxyethyl)piperazine-N'-2-ethanesulfonic acid (HEPES), 1.0M NaCl, 0.1% polyethylene glycol (pH 7.5)
Enzyme solution: the following enzyme was dissolved in the above-mentioned buffer to a concentration 9 times that shown in Table 15.
as §4
Substrate solution: for the enzymes A and B, the following substrate a or b was dissolved in a solution of DMSO+the above-mentioned buffer (1:9), or in DMSO, respectively.
as §5
To wells of an ELISA 96-well microtiter plate, were added 120 μl of the buffer, 20 μl of a sample solution of (Arg^59 -Ala^107) SLPI obtained in Example 23, and 20 μl of the enzyme solution in this order, an the mixture was reacted at 37° C. for 1 hour. Next, 20 μl of the substrate was added to develop at 25° C. Absorption of the developed color was measured at 405 nm. As a control, SLPI was used.
On the basis of the result thus obtained, an inhibitory constant (Ki) of (Arg^59 -Ala^107) SLPI of the present invention was calculated according to the method of Henderson (Henderson, P. J. F. (1972), Biochem. J. 127, 321-333).

The target of assay [6] is T6, polymorphonuclear leukocyte elastase from human sputum (Homo sapiens, UniProt P08246).
T6 construct: Polymorphonuclear leukocyte elastase from human sputum (EPC Co; Funakoshi Yakuhin); purchased EPC Co. (via Funakoshi Yakuhin); host or cells: human sputum
T6 sequence (P08246 30-267): T1 sequence (P08246 30-267)
The experiment in a line: Serine protease inhibitory assay, Example 12: human elastase. Particulars: read-out: concentration of inhibitory protein which exhibits a 50% inhibition; enzyme 10^-9 M; MeO-Suc-Ala-Ala-Pro-Val-pNA 0.3 mM; 37° C. As to the method: (§11) To each well of a 96-well ELISA microplate were added 140 μl of the above-mentioned buffer, 20 μl of a test solution, and 20 μl of the enzyme solution, and the mixture was stirred at 37° C. for 30 minutes. Next, 20 μl of the substrate solution was added to the well, the mixture was stirred at 37° C. for one hour to develop same, and the absorbance at 405 nm was measured.

The next assay has as its target T7, Calf pancreatic trypsin (Bos taurus, UniProt P00760).
T7 construct: (2) Calf pancreatic trypsin (Sigma); purchased Sigma; host or cells: calf pancreas
T7 sequence (P00760 24-246): T2 sequence (P00760 24-246)
Kind of assay: Serine protease inhibitory assay, Example 12: trypsin. Particulars: read-out: concentration of inhibitory protein which exhibits a 50% inhibition; enzyme 10^-7 M; Bz-Arg-pNA 1.0 mM; 37° C. The method, then: (§12) Assay of serine protease inhibitory activity of active-type (Asn^55 -Ala^107) SLPI fragment polypeptide
(§13) The active-type (Asn^55 -Ala^107) SLPI fragment polypeptide obtained by refolding by the procedure shown in Example 11 as measured to determine its inhibitory activity to various serine proteases. The assay result thereof is shown as follows.
(§14) Enzyme solution: The following enzymes were dissolved in the above-mentioned buffer solutions at a concentration ten-times higher than the concentration shown in Table 4.
(2) Calf pancreatic trypsin (Sigma)
(§15) Substrate solution: For the above-mentioned enzymes (1) to (7), the following substrates (1) to (7), respectively, were dissolved in dimethyl sulfoxyde to a concentration of 10 mM to prepare stock solutions, which were then dissolved in the above-mentioned buffer solution to concentration ten-times higher than final concentrations, to prepare substrate solutions. […]
as §11
Moreover, an inhibitory constant Ki of the present (Asn^55 -Ala^107) SLPI was calculated on the basis of the above data by a method of Dixon, M. and Webb, E. C. (1979), Enzyme, Longman or a method of Henderson, P. J. F. (1972) Biochem. J., 127, 321-333.

For assay [7], the target named is T8, Calf pancreatic chymotrypsin (Bos taurus, UniProt P00766).
T8 construct: (3) Calf pancreatic chymotrypsin (Sigma); purchased Sigma; host or cells: calf pancreas
The experiment in a line: Serine protease inhibitory assay, Example 12: chymotrypsin. Particulars: read-out: concentration of inhibitory protein which exhibits a 50% inhibition; enzyme 10^-8 M; Suc-Ala-Ala-Pro-Phe-pNA 0.1 mM; 37° C. As to the method:
as §12, §13, §14
(3) Calf pancreatic chymotrypsin (Sigma)
as §15, §11

In assay [8] the target is T9, Porcine pancreatic elastase (Sus scrofa, UniProt P00772).
T9 construct: (4) Porcine pancreatic elastase (Sigma); purchased Sigma; host or cells: porcine pancreas
Kind of assay: Serine protease inhibitory assay, Example 12: porcine elastase. Particulars: read-out: concentration of inhibitory protein which exhibits a 50% inhibition; enzyme 6 × 10^-9 M; Suc-Ala-Ala-Ala-pNA 0.1 mM; 37° C. As to the method: as §12, §13, §14
(4) Porcine pancreatic elastase (Sigma)
as §15, §11

Assay [9] concerns the target T3, Human plasma thrombin. Kind of assay: Serine protease inhibitory assay, Example 12: thrombin. Particulars: read-out: concentration of inhibitory protein which exhibits a 50% inhibition; enzyme 10^-11 M; H-D-Phe-Pip-Arg-pNA 0.1 mM; 37° C. As to the method: as §12, §13, §14
(5) Human plasma thrombin (Kabi, Daiichi Kagaku Yakuhin)
as §15, §11

Assay [10] concerns the target T4, Human plasma plasmin. The experiment in a line: Serine protease inhibitory assay, Example 12: plasmin. Particulars: read-out: concentration of inhibitory protein which exhibits a 50% inhibition; enzyme 10^-8 M; H-D-Val-Leu-Lys-pNA 0.1 mM; 37° C. The method, then: as §12, §13, §14
(6) Human plasma plasmin (Kabi, Daiichi Kagaku Yakuhin)
as §15, §11

Assay [11] deals with T5, Human plasma kallikrein. The experiment in a line: Serine protease inhibitory assay, Example 12: kallikrein. Particulars: read-out: concentration of inhibitory protein which exhibits a 50% inhibition; enzyme 10^-8 M; H-D-Pro-Phe-Arg-pNA 0.1 mM; 37° C. As to the method:
as §12, §13, §14
(7) Human plasma kallikrein (Kabi, Daiichi Kagaku Yakuhin)
as §15, §11

The source of these data is patent publication US5851983A, “Elastase inhibitory polypeptide and process for production thereof by recombinant gene technology” (Teijin Limited, priority 1987, dated 1998).

pIC50: −log10 of the molar value.

T5 sequence (P03952 391-638 limits assumed): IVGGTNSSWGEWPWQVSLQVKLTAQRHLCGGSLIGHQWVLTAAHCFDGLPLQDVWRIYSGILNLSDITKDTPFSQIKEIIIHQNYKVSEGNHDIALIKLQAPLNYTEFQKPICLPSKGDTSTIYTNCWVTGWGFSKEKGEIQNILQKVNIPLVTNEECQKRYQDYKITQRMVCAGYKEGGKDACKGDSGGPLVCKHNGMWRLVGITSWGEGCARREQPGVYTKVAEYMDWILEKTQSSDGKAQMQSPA
T5 sequence (P03952 20-390 partner limits assumed): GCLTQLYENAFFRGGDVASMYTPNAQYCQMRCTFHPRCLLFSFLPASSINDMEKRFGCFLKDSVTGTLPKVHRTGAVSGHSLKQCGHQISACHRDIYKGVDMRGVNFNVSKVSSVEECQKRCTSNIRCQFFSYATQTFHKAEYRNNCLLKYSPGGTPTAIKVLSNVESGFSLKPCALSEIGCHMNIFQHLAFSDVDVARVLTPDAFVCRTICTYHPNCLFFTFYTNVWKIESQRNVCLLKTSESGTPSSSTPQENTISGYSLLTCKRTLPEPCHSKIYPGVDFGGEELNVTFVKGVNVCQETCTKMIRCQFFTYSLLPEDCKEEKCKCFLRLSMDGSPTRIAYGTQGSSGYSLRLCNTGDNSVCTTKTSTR
T4 sequence (P00747 581-810 limits assumed): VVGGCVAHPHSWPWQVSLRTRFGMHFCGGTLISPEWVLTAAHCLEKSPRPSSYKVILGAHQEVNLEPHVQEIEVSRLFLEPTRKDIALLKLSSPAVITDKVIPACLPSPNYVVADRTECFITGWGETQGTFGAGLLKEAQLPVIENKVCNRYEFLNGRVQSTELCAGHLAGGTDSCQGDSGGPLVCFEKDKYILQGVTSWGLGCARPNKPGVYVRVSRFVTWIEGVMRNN
T4 sequence (P00747 97-580 partner limits assumed): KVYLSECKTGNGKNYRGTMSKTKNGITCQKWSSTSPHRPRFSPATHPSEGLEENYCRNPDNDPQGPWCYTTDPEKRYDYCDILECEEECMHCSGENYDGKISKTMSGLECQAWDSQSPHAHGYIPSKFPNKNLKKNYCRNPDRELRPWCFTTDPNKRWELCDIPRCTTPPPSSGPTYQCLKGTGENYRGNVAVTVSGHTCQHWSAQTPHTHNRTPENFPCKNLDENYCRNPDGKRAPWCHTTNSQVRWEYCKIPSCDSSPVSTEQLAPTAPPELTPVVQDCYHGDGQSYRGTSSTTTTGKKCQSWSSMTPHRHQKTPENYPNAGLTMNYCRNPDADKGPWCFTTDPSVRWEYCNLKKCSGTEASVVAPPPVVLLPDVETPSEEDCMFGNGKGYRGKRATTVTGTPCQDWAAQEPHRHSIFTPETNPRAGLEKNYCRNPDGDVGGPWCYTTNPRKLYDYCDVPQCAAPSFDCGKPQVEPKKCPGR
T9 sequence (P00772 27-266): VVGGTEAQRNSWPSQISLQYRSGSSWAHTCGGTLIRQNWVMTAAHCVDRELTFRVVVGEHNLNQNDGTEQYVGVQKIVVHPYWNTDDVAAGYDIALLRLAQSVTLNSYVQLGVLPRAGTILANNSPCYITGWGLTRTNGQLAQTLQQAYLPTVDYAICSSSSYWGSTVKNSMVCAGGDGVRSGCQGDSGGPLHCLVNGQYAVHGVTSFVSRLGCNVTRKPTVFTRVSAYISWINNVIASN

Regarding “(Arg^59 -Ala^107) SLPI: polypeptide having an amino acid sequence starting with the 59th Arg and ending at the 107th Ala of SLPI (RKPGKCPVTYGQCLMLNPPNFCEMDGQCKRDLKCCMGMCGKSCVSPVKA)”, the pIC50 in assay [1] was 7.92; with Bovine spleen trypsin it was 5.70. In addition, in the assay with Human plasma thrombin [2], the “inhibitory activity to thrombin” value was “did not exhibit inhibitory activity”. Moreover, the “inhibitory activity to plasmin” value in the assay with Human plasma plasmin [3] is “did not exhibit inhibitory activity”. In addition, the “inhibitory activity to kallikrein” value with Human plasma kallikrein [4] is on record as “did not exhibit inhibitory activity”. Also, in the assay on Porcine FXa, the “inhibitory activity to FXa” value was “did not exhibit inhibitory activity”. For the same substance, the “relative ratio of inhibitory activity on trypsin to that on elastase (Ki(T)/Ki(E))” value in [5] is listed as “about 14,000”.
Take Aprotinin: the pIC50 was 6.52 in assay [6]; 7.00 on Calf pancreatic trypsin; 7.30 in assay [7]; under 5.70 in assay [8]; under 5.70 at Human plasma thrombin [9]; 8.30 on Human plasma plasmin [10]. In addition, on Human plasma kallikrein [11], the pIC50 is 7.15.
For “α1 -PI: α1 -AT (Sigma), inhibitory protein used as a positive control”, the pIC50 is 6.70 with Calf pancreatic trypsin; 5.70 in assay [7]; 6.52 in assay [8]; under 5.70 in the assay with Human plasma thrombin [9]; under 5.70 in the assay with Human plasma plasmin [10]; under 5.70 with Human plasma kallikrein [11].
